Test system: Saccharomyces cerevisiae
Assay: transcriptional activation domain activity (GFP:mCherry ratio, weighted mean of sorted bins, harmonized to initial dataset scale) (arbitrary fluorescence ratio units); higher = stronger transcriptional activation
Details: beta-estradiol 1 µM; induction time 4 h
Method: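 53-aa protein tiles (fungal proteins plus yeast TF control tiles) fused C-terminally to a DBD-estrogen-binding domain-mCherry synthetic TF, integrated in S. cerevisiae (URA3 locus) with a GFP reporter. Cells were induced with 1 uM beta-estradiol for 4 h at 30 C, FACS-sorted into 8 bins by GFP:mCherry ratio and barcodes sequenced. Activity is the read-weighted mean bin fluorescence (GFP:mCherry), averaged over barcodes (median 12); tiles under 50 reads were discarded. New active-learning values were harmonized by linear fit onto the scale of the initial (Hummel et al.) dataset. The assay saturates at low and high signal.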

Sequence | transcriptional activation domain activity
AISKLGQIMLYILKCLGLLKVVRKDDQGRIVECNNLTLINLVLTYTGPLPERN | 46000
ENEQDSLALDDLDRAFELVEGMDMDWMMPSHAHHSPATTATIKPRLLYSPLIH | 74200
APTAARVVPSACPSSVTSRATATATMTSPGGGSRSSSRTAAAAAPTGAAVARC | 48400
GKPAASAFGGGSSAFGAGSGAFGGGGGGGPSAFGAPASKPSAFGTGGAFGGGA | 51100
LDHRVGIEKLYVSLFFLSTALLIIIEQYFPSLKSRGVLNFLWKLLYLPLLRLV | 43000
SKHSKKRSSKRARSSSSSSSSSSSEEDDRRRRKRRKEKKRSHKKSHTRRRSRS | 32700
MGNVQRWAVAIKNVIAVLVVCLRFITDTFIIATSEYPRGGFLVLLHIRMLFML | 81400
LLQKVAIQHYHTGLRALIPWSQLTVLVIASIPSQQCVRVLALAVNLLYCEFAI | 67000
AKEEKKEEKKEEAKAAEEVKPEETPAVEETKAEEAKVDEAKTEETPAVAAAAA | 15700
FRSFVLMRLLVPIPAYFVLSCMFSMINLPFKLSFGGMGYGYGAGFMIWWCFTF | 65100
QGFMNVTFTNGRKYEALSKQLIFIVHAIFMAANDHVGYILLRALRVYMELDVY | 69900
EHVFLVYFFIFTMQEFAGELVSLVDVMRRIYSLDQARANRAHWWKWIFRCWLH | 58900
VDRFKEFSHFLRRNENRTPSMIVLRRLCLDVSFLLCVVGFVRILWKRSGMRRR | 62400
LCIGIVLIAAFIAYEYLMVSGRVLARHLPHQKSMLPWELITNKDLGLLFYVNF | 44400
EAEIGVAAEDKISPQKARRKAKVEKEDGKAEEGAEGQKTTKRRRKTKEEKEEE | 14900
MVQNWEFFVFFFRFVKFTCVQCGLWCGSPGKLLGLFLFLVCCVLFFFFFFLVE | < 6570
MHEYARVALFGTVGVPLRVFISPAFLRALRSFAPHVIHLVDPILLRMQAHIAL | 48700
ALHHVAWWIIIFELFFTVGIIVALGLGGFGPHRGTVCRYLLYTTCSQACNSLY | 35200
VKAAAPKRGGRKKKVEAKAEAGDEVEAAVFEKKEVEEEEKEKGGEKEVKETVE | 9930
MLSLRQCYLVLCTLLIITGVGLASTIFIPVNPFYQLLLMENVAFPWIHFILFC | 49900
TTTLTGRPPSTFSGPETSNGPPTGSLPSKFVHDLMSNSPNVSSISMFPDWSMG | 21600
FWNLFNLVPGIQAQNLHCRYDYYPWGLSAFCQFLPIANAIGLTGSYTGIIYCC | 33900
ERDRKEQNGGGEGGRGGRHKKGARGAERRGHGSGSEGGGKAGANPERRTGGRG | < 6570
MDVGIYVCICFDGLFSFGEFFYVVYTSFINHTIEFLCLFGFHFLFWVLIFFWV | 50900
FLARLESLHRALGLYLWFSYRYPNIIISQALAFHAKSMLEAKIDDLLQKMSFD | 44300
QQPITYRKTIYDFFSWFLSLGFLNMMVPCFDLLYISRILVVWREVYYCHLIIA | 58100
YTYLSNAQLILSICSLYSCSPYLDPYMLLPLLRWAFLYVFLLVLAFAAVLFSA | 41800

Sequence | transcriptional activation domain activity
MDTSNSWFDASKVQSLNFDLQTNSYYSNARGSDPSSYAIEGEYKTLATDDLGN | 14200
NSTPAKVEEEAEAKPEEAKPEGEEVAKEEEEKKDEEPKPAIGDVVPDAVAVGQ | 25300
EDEEEEAEKAESKPPKKARKSKAEPAVDEDEPAVKPKKKATAASKKRKAESEE | 21100
MTCFVCNPFLLCAKVFVFFSVSWWVVLSSLFWGCFLMYVFLLFPIKMFLRFCS | 61000
EADEEAAKAEHVHAPGEGGEGEGGGGPRRLEGKEGEREQKEIERQKKAEKDEK | 44400
SSACASRSSPSSSCGSPSTSCAGAAARASPPRRCSARPCPRRRRAASPTASTS | 10100
KGVAVADRVVKFVAGYVAYATEQDAAKRPEGEEDVETPSSRFVTKLLRHLLSG | 56400
VIVIVMLFFLFYFNRLLGFVISKIVSYWTWKLYSAHIEIESIKFALLGGRISF | 55200
FLHLATLKEKMGNRFRAKQSDISPEINLVLLGVLTLTVRFNPTLVSYVTTLRT | 50600
EAKTDAETAVETQPEPKEEVATEETTKSAAKPAGAKKGGKKRAQPEKPADEAA | 12500
ALSTADGGRVPAKRARKAINCGPCRLSKLKCDRERPCSSCKLRGTTASCYQGQ | 34000
IVQLHLKIHGAWLGRIRCDHCPKFHIEKFCWAACGGPQGLRRIIEHYLKVLNW | 39000
EMAVACISVLILIGYNTIILYVYPLYPTRSPLRLSETYINHLLSNFLWWFIMF | 59100
EEEDGQSEPDSARAPRKAKSKTRAATDGEDESEARSKPKASRKGRRKVEASDA | 24000
EVDAEAAEKPVKRLTRKARGVTEENQTSDAQSSRPAPVRRGRKPASVASTTAP | 54700
EKNKAEKKVKTPKSPKKEKKKEEPAAAAVEEPAKEEAAPAEAPAAPVEEPAKV | 22800
EDGNGHGTHCSGTIAGKKYGVAKKAHVYAVKVLRSNGSGSMSDVVKGVEFAAT | 42400
CSNIAEQADQCDFVKSYCDGFSGYYLMLYYCSPFWRPISIFILLSCLLMLFGA | 30700
PAANNPTGTLSSDELTFTHDLIEKVFNCNDKLSDNYNTQILSNTEHPLLTSYK | 73500
APPEGGDKSESKEPPKKEESAPTEAKPAEPKEENKPEAKQASNKETKPESSKP | 23300
VLLQNLCRMVITRLGDWTLFKAFVLCCCLYRLSFFHDLFLFLYTFSFPLLCFT | 57100
GEKGRKGGAEEGERRREEGGGRRRDEGERRGEGGAGSREGTGRAGEQGERGSR | 19200
SIHLPKKITICTYIGTYYAIGAAWGFVLMNYFLTGWYFGLYDKYYIDSFGIYV | 76000
RELKRMVQEAIRDIREKKSTLTVQHLKRLLFRVAALIICTPKCDHDLLHYLVI | 61800
MLMHASPRMPIVQIFFFIFIHLSPPPFPFFFSLILSHRYSISFFLSLFSLLYF | 35800
LPSLAQIDVLIRRERMVTIERHPLCLSLVVASQYTLGPLLLLRIVHCIYKTYG | 58200
MGGYLFHLLFFSFFLFSSLLRVYYYIVDMGGVLSLLYRFFLLLVTIFVRCIIF | 57100

Sequence | transcriptional activation domain activity
EWVIGWCKQIGLPDGVTEFIGRSYIMTAEAYLDLPMSKQVLVPVVAINTLVFV | 34200
MFWIFYELFLDGQDIHRFSLLLVFFLFFPFASYTYSLLLLILYSVSPYGFLTS | 38000
MRIAIYWRSFSVSTSFFFLPGYSFFLSNWVLFLVYFYDTGCGVCFLPFIMIFF | 72700
MNAFRPLHFLFYFIFLLLSMKALRFFIFSIFFFIFLHLHLCIHIYIALLFSYP | 30600
VGGEANGEVVKRKSKKKGGKEETDTEVVDGEDQSSRKVATRKLSRGKAEKKAK | 48900
GRGRGGRGAGARGRGGTGEEGEGAGGKQERGQGGRGKERGGEGGGERGQGGRG | 28000
AAAVEKTEEEKPVAAAAAPAAEKEKAPAAKAKKATTTKKAAAPKKAAAPKAKK | 27700
SAEFRANEFARHPLLDALLLSLMVDGSSTLLEIEVATLVCLLRQFAIHAPDTL | 51800
GSELEVKKPSKKRAPKKAAKKEEYEGSEMDEKPAPKRRAPARSTKKAAKKEEA | 15800
MVFLLIFIVSTLFFCLFLYLLLPSFFYVIFALLAHIFVFSVSLHRQPLLLYLS | 49300
SIFVVFFISFVPLVVQELTERGFWRAATRLAKHFGSLSFLFEVFVCQVYANSL | 65500
MPEETVTEPRKKRAKIMSACSECRRKKTKCNGEQPCRNCQKSSVQCVYPAATQ | 36500
WSILYLLCEVYARLLLTLSDDEFLSHAGNPLSLKQVIELTRQLKNLSFVLFWR | 70700
FDHPLIPNRRKTYMRFEGCNPDMGCTIILRGADIITLRRLKKVMRFVTFMVRN | 70100
VRSRALLFVFKYYFFLVYFVFYRNLFARLRSFDQFALVQLLSSFWVCIWYPFS | 48400
ELNEYLDLFKNNFLPHFPIIHPSLLDLDLDSLQRYTNEDGYDDAENAQLFDRL | 117000
SQSRSRSASRSRSPPRKREKRDSSDREDSRDRRRNKSESRSRSRSPAKSAGSA | 16300
FRRYKGPGREDEETDDEDEVRPRRPMEMKKRVLHLLTTEITINTTLYGDFTAF | 27700
MHPILSCLVSIVCPIMHILLLAVLLFLNTLSRLILAFTYTTFSLFVFSVQLTP | 71500
MYDACLCGRLGFFYLLLVFFLSSVFHSHLFFLPFFGLFYLLRYFFFNFSTFVA | 52700
AIYSNIMGFLGGVAWAMLVAHICQLFPNACAAAIVTRFFRIMYQWKWPQPVLL | 64900
MVFGGIFFQLRGCAVGWSLGYSVSCFFLFFLFVFYAVSFLVWSGCGFLFSFFF | 62700
KLYYLAFYSGNILRRDLNLIIGVGKNWNLPAFWAPLLRYVTCPILAIIYSMAY | 63600
SQPSDTIRKRTAGDDGALDQTENTSISPKKRRTEDHTKGEEDEGERGVGNSGT | 22200
MAAAPAAKACAQCNKAETVSGGSDGEEGSSNLHPCNMCKSVLYCSRDCKKAHG | 8830
